Results reported in the nanobody polyreactivity screen of Harvey et al. (2022).

assay: yeast display, Sf9 membrane polyspecificity reagent, FACS + sequencing; frameworks hold sequencing errors
How it was run: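 Genes from sorted yeast were amplified by colony PCR, read by MiSeq 2 × 250 sequencing and filtered on CDR length. These cells carried a synthetic nanobody library in Saccharomyces cerevisiae BJ5465 and were sorted by FACS into low and high (top ~1%) gates on anti-HA and streptavidin fluorescence. Polyreactivity is labelled according to the gate of origin.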

Sequence | polyreactivity (PSR sort gate)
QVQLVESGGGLVQAGGSLRLSCAASGFTFVRYAMGWYRKAPGKERELVAAISGSGDRTYYADSVKGRFTISRDNAKNTVYLQMNSLKPEDTAVYYCAKKSLGARHTGRYNYWGQGTQVTVSS | high polyreactivity
QVQLVESGGGLVQAGGSLRLSCAASGFTFVRYAMGWYRQAPGKEREFVASISARGGNTFYADSVKGRFTISRDNAKNTVYLQMNSLKPEDTAVYYCAKRGPYGTGYGYWGQGTQVTVSS | high polyreactivity
QVQLVESGGGLVQAGGSLRLSCAASGFTFVRYAMGWYRQAPGKERELVAAISRRGGSTYYADSVKGRFTISRDNAKNTVYLQMNSLKPEDTAVYYCAARAPYRRVRMNYWGQGTQVTVSS | high polyreactivity
QVQLVESGGGLVQAGGSLRLSCAASGFTFVRYAMGWYRQAPGKERELVAVISRSGGSTNYADSVKGRFTISRDNAKNTVYLQMNSLKAEDTAVYYCNVVVKGAWDYYPYDYWGQGTQVTVSS | high polyreactivity
QVQLVESGGGLVQAGGSLRLSCAASGFTFVRYVMGWSRQAPGKERELVAAISRSGGSTHYADSVKGRFTISRDNAKNTVYLQMNSLKPEDTAVYYCAAASPRWPGQGDYWGQGTQVTVSS | high polyreactivity
QVQLVESGGGLVQAGGSLRLSCAASGFTFVSNALGWYRQAPGKETELVADITSDGSTNYADSVKGRFSISRDNAKNTVYLQMNSLKPEDTAVYYCATDQRSHTWVNQFDYWGLGTQVTVSS | low polyreactivity
QVQLVESGGGLVQAGGSLRLSCAASGFTFVSNDMGWYRQAPGKERELVAVITTGDTSTSYADSVKGRFTISRDNAKNTVYLQMNSLKPEDTAVYYCAADPHDTVRHDALVELEYWGQGTQVTVSS | low polyreactivity
QVQLVESGGGLVQAGGSLRLSCAASGFTFVSYAMGWYRQAPGKERELVAAISRSGGTTYYADSVKGRFTISRDNAKNTGYFQMNSLKPEDTAVYYCAADFYVFYTRYYYWGQGTQVTVSS | low polyreactivity
QVQLVESGGGLVQAGGSLRLSCAASGFTFVSYAMGWYRQAPGKERELVATITSDGSTNYADSVKGRFTISRDNAKNTVYLQMNSLKPEDTAVYYCAADIHYYPGYLAYDYWGQGTQVTVSS | low polyreactivity
QVQLVESGGGLVQAGGSLRLSCAASGFTFVTNAMGWYRQAPGKERELVAAISRRGGSTYYADSVKGRFTISRDIAKNTVNLEMNSLKPEDTAVYYCNADRQRRRQFSFSSPYDYWGQGTLVTVSS | high polyreactivity
QVQLVESGGGLVQAGGSLRLSCAASGFTFVTNAMGWYRQAPGKERELVAAISRRGGSTYYADSVKGRFTISRDNAKNTVDLQMNSLKPEDTPVYYCNADRQRRRQFSFSSPYDYWGQGTQVTVSS | high polyreactivity
QVQLVESGGGLVQAGGSLRLSCAASGFTFVVYTMGWYRQAPGKEREFVAVISESGGSTYYADSVKGRFTISRDNAKNTVYLQMNSLKPEDTAVYYCAARTRYYRDNYWGQVTQVTVSS | high polyreactivity
QVQLVESGGGLVQAGGSLRLSCAASGFTFVWNARGWYRQAPGKERELVAVISYSGGSTYYADSVKGRFTISRDNAKNTVYLQMNSLKPEETAVDYCAAEFVTYYSSSKRAYYYWGQGTLVTVSS | high polyreactivity
QVQLVESGGGLVQAGGSLRLSCAASGFTFVWYAMGWYRQAPGKERELVAAISRRGTRTYYADSVKGRFTISRDNAKNTVYLQMNSLKPEDTAVYYCAASPWGGYGYWGQGTQVTLSS | high polyreactivity
QVQLVESGGGLVQAGGSLRLSCAASGFTFVYYAMGWYRQAPGKEREFVAAISLSGGSTYYADSVKGRFTISRDNAKNTVYLQMNSLKPEDTAVYYCATDWSLRIERDYGYWGQGTQVTVSS | low polyreactivity
QVQLVESGGGLVQAGGSLRLSCAASGFTFVYYAMGWYRQAPGKERELVAAIRSGGSTNYADSVKGRFTISRDNAKNTVYLQMNSLKPEDTAVYYCAAAYWKGRLVRYYYWGQGTQVTVSS | high polyreactivity
QVQLVESGGGLVQAGGSLRLSCAASGFTFVYYAMGWYRQAPGKERELVAAISGRGGSTYYADSVKGRFTISRDNAKNTVYLQMNSLKPEDTAVYYCATTYSWYYVPDKTHIYYYWGQGTQVTVSS | low polyreactivity
